Like-named read-outs stand apart in the source and are kept apart here.
Assays:
COS-7 cells [1] = experiment: basal cAMP signaling of tethered ligand/receptor constructs in transiently transfected COS-7 cells; format: cell-based; conditions: for level of basal cAMP signaling: no agonist
Experimental: (§1) Cell Culture: COS-7 cells were cultured at 37° C. in T-75 flasks ([…] in Dulbecco's modified Eagle's medium (DMEM) supplemented with fetal bovine serum (10%), penicillin G (20 units/ml), streptomycin sulfate (20 μg/ml) and amphotericin B (0.05 μg/ml) in a humidified atmosphere containing 5% CO2. Cells were sub-cultured in 24-well plates and, when confluent, were treated with fresh media and shifted to 33° C. for 12 to 24 h prior to the assay (Bergwitz, C., et al., J. Biol. Chem. 272:28861–28868 (1997); Abell, A., et al., J. Biol. Chem. 271:4518–4527 (1996)).
PTH Receptor mutagenesis and COS-7 cell expression: The pcDNA-1-based plasmid encoding the intact HPTH-1 receptor (HK-WT in reference (Schipani, E., et al., Endocrinol. 132:2157–2165 (1993)) and herein called hP1R-WT) was used for studies in COS-7 cells. The truncated human PTH-1 receptor (hP1R-de1Nt) (FIG. 18) was constructed from the HK-WT plasmid by oligonucleotide-directed mutagenesis (Kunkel, T. A., Proc. Natl. Acad. Sci. USA 82:488–492 (1985)). This mutant receptor is deleted for residues 24 to 181 and, assuming that signal peptidase cleavage occurs between Ala^22 and Tyr^23 (Nielsen, H., et al., Protein Engineering 10:1–6 (1997)), is predicted to have Tyr^23 as the N-terminal residue joined directly to Glu^182 located at or near the boundary of the first transmembrane domain. A similarly truncated rat PTH receptor was described by us previously (Luck, M., et al., Molec. Endocrinol. 13:670–680 (1999)). The tethered human PTH-1 receptor [hP1R-Tether(1–9)] (hTether-1 in FIG. 17) is based on the hP1R-de1NT construct, and has PTH(1–9) and a four glycine spacer (AVSEIQLMHGGGG) (SEQ ID NO: 72) inserted between residues 23 and 182. Assuming that signal peptidase cleavage occurs between Ala^22 and Tyr^23, hP1R-Tether(1–9) is predicted to have Tyr^23 as the N-terminal residue joined directly to Ala of the ligand. Analogs of hP1R-Tether(1–9) were made in a similar fashion. Transient transfections of COS-7 cells were performed using DEAE-dextran and 200 ng of cesium chloride-purified plasmid DNA per well of a 24-well plate, as described previously (Bergwitz, C., et al., J. Biol. Chem. 272:28861–28868 (1997)).
cAMP Stimulation: Stimulation of cells with peptide analogs was performed in 24-well plates. Cells were rinsed with 0.5 mL of binding buffer (50 mM Tris-HCl, 100 mM NaCl, 5 mM KCl, 2 mM CaCl2, 5% heat-inactivated horse serum, 0.5% fetal bovine serum, adjusted to pH 7.7 with HCl) and treated with 200 μL of cAMP assay buffer (Dulbecco's modified Eagle's medium containing 2 mM 3-isobutyl-1-methylxanthine, 1 mg/mL bovine serum albumin, 35 mM Hepes-NaOH, pH 7.4) and 100 μL of binding buffer containing varying amounts of peptide analog (final volume=300 μL). The medium was removed after incubation for 1 h at room temperature, and the cells were frozen (−80° C.), lysed with 0.5 mL 50 mM HCl, and refrozen (−80° C.). The cAMP content of the diluted lysate was determined by radioimmunoassay.

COS-7 cells [2] = experiment: agonist-induced cAMP signaling of receptor constructs in transiently transfected COS-7 cells; format: cell-based
Experimental: as §1
PTH Receptor mutagenesis and COS-7 cell expression: The pcDNA-1-based plasmid encoding the intact HPTH-1 receptor (HK-WT in reference (Schipani, E., et al., Endocrinol. 132:2157–2165 (1993)) and herein called hP1R-WT) was used for studies in COS-7 cells. The truncated human PTH-1 receptor (hP1R-de1Nt) (FIG. 18) was constructed from the HK-WT plasmid by oligonucleotide-directed mutagenesis (Kunkel, T. A., Proc. Natl. Acad. Sci. USA 82:488–492 (1985)). […]
cAMP Stimulation: Stimulation of cells with peptide analogs was performed in 24-well plates. […] The cAMP content of the diluted lysate was determined by radioimmunoassay.

B1: hP1R-[R^11]-Tether(1–11): Made from hTether-1 by inserting Asn10-Arg11 between His9 and first Gly of linker (protein)
chain: MGTARIAPGLALLLCCPVLSSAYAVSEIQLMHNRGGGGEVFDRLGMIYTVGYSVSLASLTVAVLILAYFRRLHCTRNYIHMHLFLSFMLRAVSIFVKDAVLYSGATLDEAERLTEEELRAIAQAPPPPATAAAGYAGCRVAVTFFLYFLATNYYWILVEGLYLHSLIFMAFFSEKKYLWGFTVFGWGLPAVFVAVWVSVRATLANTGCWDLSSGNKKWIIQVPILASIVLNFILFINIVRVLATKLRETNAGRCDTRQQYRKLLKSTLVLMPLFGVHYIVFMATPYTEVSGTLWQVQMHYEMLFNSFQGFFVAIIYCFCNGEVQAEIKKSWSRWTLALDFKRKARSGSSSYSYGPMVSHTSVTNVGPRVGLGLPLSPRLLPTATTNGHPQLPGHAKPGTPALETLETTPPAMAAPKDDGFLNGSCSGLDEEASGPERPPALLQEEWETVM
basal signaling compared with maximum agonist-stimulated response of hP1R-WT (COS-7 cells [1]): approached the maximum response attained by hP1R-WT
time of maximum level of basal cAMP signaling (COS-7 cells [1]): 40 min
increase in basal cAMP signaling (COS-7 cells [1]; comparator not restated): 20 fold
basal signaling compared with maximum agonist-stimulated response of hP1R-WT (COS-7 cells [1]; listed as hP1R-[R^11]Tether-(1–11)): approached the maximum agonist-stimulated response attained by hP1R-wildtype
level of basal cAMP signaling (COS-7 cells [1]): increased still further
time of maximal agonist-induced signaling (COS-7 cells [2]): 40 min

B2: hP1R-Tether(1–9): tethered human PTH-1 receptor: PTH(1–9) and four glycine spacer inserted between residues 23 and 182 of hP1R-delNT (protein)
chain: MGTARIAPGLALLLCCPVLSSAYAVSEIQLMHGGGGEVFDRLGMIYTVGYSVSLASLTVAVLILAYFRRLHCTRNYIHMHLFLSFMLRAVSIFVKDAVLYSGATLDEAERLTEEELRAIAQAPPPPATAAAGYAGCRVAVTFFLYFLATNYYWILVEGLYLHSLIFMAFFSEKKYLWGFTVFGWGLPAVFVAVWVSVRATLANTGCWDLSSGNKKWIIQVPILASIVLNFILFINIVRVLATKLRETNAGRCDTRQQYRKLLKSTLVLMPLFGVHYIVFMATPYTEVSGTLWQVQMHYEMLFNSFQGFFVAIIYCFCNGEVQAEIKKSWSRWTLALDFKRKARSGSSSYSYGPMVSHTSVTNVGPRVGLGLPLSPRLLPTATTNGHPQLPGHAKPGTPALETLETTPPAMAAPKDDGFLNGSCSGLDEEASGPERPPALLQEEWETVM
enhancement in the basal level of cAMP relative to hde1NT (COS-7 cells [1]; absence of any agonist peptide): ~5 fold

B3: hP1R-WT: intact human PTH-1 receptor (protein)
chain: DADDVMTKEEQIFLLHRAQAQCEKRLKEVLQRPASIMESDKGWTSASTSGKPRKDKASGKLYPESEEDKEAPTGSRYRGRPCLPEWDHILCWPLGAPGEVVAVPCPDYIYDFNHKGHAYRRCDRNGSWELVPGHNRTWANYSECVKFLTNETREREVFDRLGMIYTVGYSVSLASLTVAVLILAYFRRLHCTRNYIHMHLFLSFMLRAVSIFVKDAVLYSGATLDEAERLTEEELRAIAQAPPPPATAAAGYAGCRVAVTFFLYFLATNYYWILVEGLYLHSLIFMAFFSEKKYLWGFTVFGWGLPAVFVAVWVSVRATLANTGCWDLSSGNKKWIIQVPILASIVLNFILFINIVRVLATKLRETNAGRCDTRQQYRKLLKSTLVLMPLFGVHYIVFMATPYTEVSGTLWQVQMHYEMLFNSFQGFFVAIIYCFCNGEVQAEIKKSWSRWTLALDFKRKARSGSSSYSYGPMVSHTSVTNVGPRVGLGLPLSPRLLPTATTNGHPQLPGHAKPGTPALETLETTPPAMAAPKDDGFLNGSCSGLDEEASGPERPPALLQEEWETVM
time of maximal agonist-induced signaling (COS-7 cells [2]): 40 min

B4: hP1R-Tether(1–10): hP1R-Tether construct with the ligand chain extended to position 10 (protein)
chain: EIQLMHNGGGGEVFDRLGMIYTVGYSVSLASLTVAVLILAYFRRLHCTRNYIHMHLFLSFMLRAVSIFVKDAVLYSGATLDEAERLTEEELRAIAQAPPPPATAAAGYAGCRVAVTFFLYFLATNYYWILVEGLYLHSLIFMAFFSEKKYLWGFTVFGWGLPAVFVAVWVSVRATLANTGCWDLSSGNKKWIIQVPILASIVLNFILFINIVRVLATKLRETNAGRCDTRQQYRKLLKSTLVLMPLFGVHYIVFMATPYTEVSGTLWQVQMHYEMLFNSFQGFFVAIIYCFCNGEVQAEIKKSWSRWTLALDFKRKARSGSSSYSYGPMVSHTSVTNVGPRVGLGLPLSPRLLPTATTNGHPQLPGHAKPGTPALETLETTPPAMAAPKDDGFLNGSCSGLDEEASGPERPPALLQEEWETVM
level of basal cAMP signaling (COS-7 cells [1]): moderate, but significant, improvements

B5: hP1R-Tether(1–11): hP1R-Tether construct with the ligand chain extended to position 11, native leucine at 11 (protein)
chain: EIQLMHNLGGGGEVFDRLGMIYTVGYSVSLASLTVAVLILAYFRRLHCTRNYIHMHLFLSFMLRAVSIFVKDAVLYSGATLDEAERLTEEELRAIAQAPPPPATAAAGYAGCRVAVTFFLYFLATNYYWILVEGLYLHSLIFMAFFSEKKYLWGFTVFGWGLPAVFVAVWVSVRATLANTGCWDLSSGNKKWIIQVPILASIVLNFILFINIVRVLATKLRETNAGRCDTRQQYRKLLKSTLVLMPLFGVHYIVFMATPYTEVSGTLWQVQMHYEMLFNSFQGFFVAIIYCFCNGEVQAEIKKSWSRWTLALDFKRKARSGSSSYSYGPMVSHTSVTNVGPRVGLGLPLSPRLLPTATTNGHPQLPGHAKPGTPALETLETTPPAMAAPKDDGFLNGSCSGLDEEASGPERPPALLQEEWETVM
level of basal cAMP signaling (COS-7 cells [1]): moderate, but significant, improvements
